Source: the supplement of paper PMC10065799, “High-throughput profiling of sequence recognition by tyrosine kinases and SH2 domains using bacterial peptide display” (eLife, 2023)

Experiments:
FGFR1 = FGFR1 (UniProt P11362); experiment: phosphorylation enrichment, bacterial display (enrichment ratio); higher = better substrate or ligand; peptides without Tyr show the background
Fes = Fes (UniProt P07332); experiment: as above
FGFR3 = FGFR3 (UniProt P22607); experiment: as above
MERTK = MERTK (UniProt Q12866); experiment: as above
EPHB1 = EPHB1 (UniProt P54762); experiment: as above
c-Src = experiment: as above
Hck = Hck (UniProt P08631); experiment: as above
Jak2 = Jak2 (UniProt O60674); experiment: as above
Fyn = Fyn (UniProt P06241); experiment: as above
EPHB2 = EPHB2 (UniProt P29323); experiment: as above
AncSZ = experiment: as above
Fer (mouse) = experiment: as above
c-Abl (mouse) = experiment: as above
c-Src SH2 = experiment: SH2 binding enrichment of the phosphorylated peptide, bacterial display (enrichment ratio); higher = better substrate or ligand; peptides without Tyr show the background
SHP2-C SH2 = experiment: as above
Grb2 SH2 = Grb2 SH2 (UniProt P62993); experiment: as above
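Wherever SH2 binding enrichment of the phosphorylated peptide, bacterial display is given: peptide library displayed on the E. coli surface as eCPX fusions, selected cells deep-sequenced, score is each peptide's frequency after selection divided by its frequency in the input.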
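Wherever phosphorylation enrichment, bacterial display is given: 11-residue human phosphosite peptides and single-mutation variants displayed on the E. coli surface, counted by deep sequencing, each peptide's frequency after selection divided by its frequency in the unselected input library; frequency after pTyr selection over input frequency; kinase dosed for 20-30% of maximal phosphorylation in three min.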

Sequence of FGFR3 (P22607 whole entry, looked up): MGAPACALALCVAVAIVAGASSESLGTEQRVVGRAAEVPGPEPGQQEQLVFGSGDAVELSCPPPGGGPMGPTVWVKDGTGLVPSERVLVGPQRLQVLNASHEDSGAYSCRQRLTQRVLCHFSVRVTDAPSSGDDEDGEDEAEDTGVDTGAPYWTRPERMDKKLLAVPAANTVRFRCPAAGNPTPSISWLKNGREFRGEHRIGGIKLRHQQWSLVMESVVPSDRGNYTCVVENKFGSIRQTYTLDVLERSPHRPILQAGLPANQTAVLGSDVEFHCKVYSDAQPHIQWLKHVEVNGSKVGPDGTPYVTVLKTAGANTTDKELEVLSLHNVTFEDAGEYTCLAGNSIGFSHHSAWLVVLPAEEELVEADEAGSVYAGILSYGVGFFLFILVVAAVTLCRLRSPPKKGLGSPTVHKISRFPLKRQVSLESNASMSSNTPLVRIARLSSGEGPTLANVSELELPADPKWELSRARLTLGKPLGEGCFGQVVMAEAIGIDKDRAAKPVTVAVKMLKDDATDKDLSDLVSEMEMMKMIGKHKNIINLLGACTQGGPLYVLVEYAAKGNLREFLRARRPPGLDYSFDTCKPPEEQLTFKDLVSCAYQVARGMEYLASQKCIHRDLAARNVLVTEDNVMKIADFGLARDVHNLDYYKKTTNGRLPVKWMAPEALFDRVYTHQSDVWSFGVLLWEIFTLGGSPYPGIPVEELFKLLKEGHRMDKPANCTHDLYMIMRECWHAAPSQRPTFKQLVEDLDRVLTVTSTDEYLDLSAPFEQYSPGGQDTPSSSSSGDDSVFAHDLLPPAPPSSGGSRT
Sequence of Fes (P07332 whole entry, looked up): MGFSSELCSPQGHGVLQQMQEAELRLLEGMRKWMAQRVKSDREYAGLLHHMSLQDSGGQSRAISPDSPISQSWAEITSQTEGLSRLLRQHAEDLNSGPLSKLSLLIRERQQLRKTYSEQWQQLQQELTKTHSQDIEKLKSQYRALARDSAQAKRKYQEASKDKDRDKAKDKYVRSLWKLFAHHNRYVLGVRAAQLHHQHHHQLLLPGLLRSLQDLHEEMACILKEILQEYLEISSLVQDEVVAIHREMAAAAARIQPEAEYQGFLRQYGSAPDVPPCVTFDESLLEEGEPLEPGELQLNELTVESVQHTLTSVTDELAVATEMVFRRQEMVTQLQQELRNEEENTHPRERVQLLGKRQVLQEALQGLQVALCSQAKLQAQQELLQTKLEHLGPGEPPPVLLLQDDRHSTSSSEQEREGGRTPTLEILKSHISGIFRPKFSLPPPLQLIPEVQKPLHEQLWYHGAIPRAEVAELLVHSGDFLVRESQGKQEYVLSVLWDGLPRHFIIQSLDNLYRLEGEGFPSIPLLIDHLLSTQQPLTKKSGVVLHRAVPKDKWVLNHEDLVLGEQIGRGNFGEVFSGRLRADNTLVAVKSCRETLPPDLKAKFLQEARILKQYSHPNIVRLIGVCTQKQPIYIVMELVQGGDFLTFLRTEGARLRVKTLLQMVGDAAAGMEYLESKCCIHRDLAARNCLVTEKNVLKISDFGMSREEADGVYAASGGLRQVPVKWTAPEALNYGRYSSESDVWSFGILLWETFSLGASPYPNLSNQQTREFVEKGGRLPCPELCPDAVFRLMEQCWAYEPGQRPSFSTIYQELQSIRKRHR
Sequence of Fyn (P06241 whole entry, looked up): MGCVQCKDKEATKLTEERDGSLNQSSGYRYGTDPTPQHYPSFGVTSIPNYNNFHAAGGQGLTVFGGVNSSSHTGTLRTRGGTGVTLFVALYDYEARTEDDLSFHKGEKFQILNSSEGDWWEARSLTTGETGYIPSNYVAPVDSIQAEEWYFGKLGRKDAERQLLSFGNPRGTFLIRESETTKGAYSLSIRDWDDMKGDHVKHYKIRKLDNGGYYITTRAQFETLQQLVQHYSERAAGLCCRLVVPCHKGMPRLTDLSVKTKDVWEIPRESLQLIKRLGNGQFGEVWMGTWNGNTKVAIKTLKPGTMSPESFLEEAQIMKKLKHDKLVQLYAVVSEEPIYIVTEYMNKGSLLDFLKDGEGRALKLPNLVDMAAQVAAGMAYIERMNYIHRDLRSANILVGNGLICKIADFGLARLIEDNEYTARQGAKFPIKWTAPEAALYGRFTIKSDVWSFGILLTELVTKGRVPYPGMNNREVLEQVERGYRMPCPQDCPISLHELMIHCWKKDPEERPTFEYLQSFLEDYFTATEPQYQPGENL
Sequence of Hck (P08631 whole entry, looked up): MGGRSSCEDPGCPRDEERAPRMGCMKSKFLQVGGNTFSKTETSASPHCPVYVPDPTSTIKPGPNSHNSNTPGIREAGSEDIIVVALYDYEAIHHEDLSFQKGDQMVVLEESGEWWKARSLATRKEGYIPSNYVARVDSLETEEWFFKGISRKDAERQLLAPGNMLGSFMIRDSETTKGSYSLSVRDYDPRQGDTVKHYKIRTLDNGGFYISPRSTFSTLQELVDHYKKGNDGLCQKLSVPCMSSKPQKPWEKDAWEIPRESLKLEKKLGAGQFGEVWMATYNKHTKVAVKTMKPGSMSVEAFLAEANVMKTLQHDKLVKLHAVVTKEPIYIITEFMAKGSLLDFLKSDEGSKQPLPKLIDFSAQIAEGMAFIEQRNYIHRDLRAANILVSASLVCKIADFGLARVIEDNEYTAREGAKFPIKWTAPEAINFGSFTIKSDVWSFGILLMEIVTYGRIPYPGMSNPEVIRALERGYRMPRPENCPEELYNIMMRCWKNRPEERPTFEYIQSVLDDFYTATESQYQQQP
Sequence of MERTK (Q12866 whole entry, looked up): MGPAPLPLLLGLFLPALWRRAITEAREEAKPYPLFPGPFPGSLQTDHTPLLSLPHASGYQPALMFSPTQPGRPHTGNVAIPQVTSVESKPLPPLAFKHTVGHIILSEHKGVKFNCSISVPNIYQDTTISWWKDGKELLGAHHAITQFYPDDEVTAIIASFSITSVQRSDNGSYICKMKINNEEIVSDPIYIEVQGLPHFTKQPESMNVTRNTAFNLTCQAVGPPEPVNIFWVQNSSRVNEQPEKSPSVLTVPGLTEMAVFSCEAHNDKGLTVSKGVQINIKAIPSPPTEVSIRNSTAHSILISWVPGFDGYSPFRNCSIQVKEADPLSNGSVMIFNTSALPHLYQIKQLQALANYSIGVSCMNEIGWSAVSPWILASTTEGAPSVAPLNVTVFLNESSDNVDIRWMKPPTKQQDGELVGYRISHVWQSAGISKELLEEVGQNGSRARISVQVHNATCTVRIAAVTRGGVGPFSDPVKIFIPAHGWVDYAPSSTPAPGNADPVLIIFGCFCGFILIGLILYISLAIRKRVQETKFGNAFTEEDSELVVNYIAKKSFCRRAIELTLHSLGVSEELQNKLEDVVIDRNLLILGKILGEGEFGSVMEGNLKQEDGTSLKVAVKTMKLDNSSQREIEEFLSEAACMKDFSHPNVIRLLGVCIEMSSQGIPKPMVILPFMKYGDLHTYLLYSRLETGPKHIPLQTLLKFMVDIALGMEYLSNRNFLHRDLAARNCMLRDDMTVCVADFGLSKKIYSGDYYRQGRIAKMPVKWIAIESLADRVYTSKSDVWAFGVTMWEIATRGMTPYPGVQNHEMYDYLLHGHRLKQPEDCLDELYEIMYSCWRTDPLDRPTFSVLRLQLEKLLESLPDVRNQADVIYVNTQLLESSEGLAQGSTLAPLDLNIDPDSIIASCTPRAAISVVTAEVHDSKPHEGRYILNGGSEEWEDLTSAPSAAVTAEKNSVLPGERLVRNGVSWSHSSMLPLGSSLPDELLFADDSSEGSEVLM
Sequence of Jak2 (O60674 whole entry, looked up): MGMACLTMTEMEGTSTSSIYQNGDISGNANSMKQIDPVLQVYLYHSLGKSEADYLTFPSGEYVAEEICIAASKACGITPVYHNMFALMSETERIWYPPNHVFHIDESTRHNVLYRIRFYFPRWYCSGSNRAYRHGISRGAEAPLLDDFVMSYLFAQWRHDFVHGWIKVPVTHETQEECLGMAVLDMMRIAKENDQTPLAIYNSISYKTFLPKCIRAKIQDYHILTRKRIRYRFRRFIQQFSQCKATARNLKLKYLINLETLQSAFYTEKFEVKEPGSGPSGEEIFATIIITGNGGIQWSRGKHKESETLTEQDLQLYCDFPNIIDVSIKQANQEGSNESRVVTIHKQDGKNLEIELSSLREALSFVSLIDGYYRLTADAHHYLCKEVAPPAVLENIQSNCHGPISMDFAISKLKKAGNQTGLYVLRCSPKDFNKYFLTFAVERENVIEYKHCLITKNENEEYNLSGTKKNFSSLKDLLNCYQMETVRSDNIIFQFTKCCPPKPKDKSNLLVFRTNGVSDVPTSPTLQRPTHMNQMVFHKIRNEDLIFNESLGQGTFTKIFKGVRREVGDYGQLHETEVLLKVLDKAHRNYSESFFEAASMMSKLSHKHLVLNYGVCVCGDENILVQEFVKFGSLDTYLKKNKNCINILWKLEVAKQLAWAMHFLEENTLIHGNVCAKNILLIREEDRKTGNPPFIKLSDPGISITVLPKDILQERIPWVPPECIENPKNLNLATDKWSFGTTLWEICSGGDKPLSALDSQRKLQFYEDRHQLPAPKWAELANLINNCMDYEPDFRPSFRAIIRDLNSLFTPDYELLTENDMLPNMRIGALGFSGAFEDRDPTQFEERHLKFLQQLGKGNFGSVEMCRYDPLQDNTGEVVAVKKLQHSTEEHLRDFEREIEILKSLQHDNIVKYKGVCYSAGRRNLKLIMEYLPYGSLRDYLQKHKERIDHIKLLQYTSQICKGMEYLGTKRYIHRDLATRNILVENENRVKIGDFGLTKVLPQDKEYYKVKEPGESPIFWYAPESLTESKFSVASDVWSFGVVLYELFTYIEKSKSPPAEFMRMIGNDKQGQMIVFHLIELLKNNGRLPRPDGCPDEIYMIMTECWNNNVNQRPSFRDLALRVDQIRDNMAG
Sequence of Grb2 SH2 (P62993 whole entry, looked up, the tested form may be a part): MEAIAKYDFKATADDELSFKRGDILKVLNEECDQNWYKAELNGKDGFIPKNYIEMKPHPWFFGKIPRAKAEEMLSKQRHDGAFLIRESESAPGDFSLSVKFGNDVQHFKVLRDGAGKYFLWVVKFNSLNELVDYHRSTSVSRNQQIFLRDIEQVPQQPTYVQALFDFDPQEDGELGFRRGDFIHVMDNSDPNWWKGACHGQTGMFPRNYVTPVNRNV

| Sequence | phosphorylation enrichment (FGFR1) | phosphorylation enrichment (Fes) | phosphorylation enrichment (FGFR3) | phosphorylation enrichment (MERTK) | phosphorylation enrichment (EPHB1) | phosphorylation enrichment (c-Src) | phosphorylation enrichment (Hck) | phosphorylation enrichment (Jak2) | phosphorylation enrichment (Fyn) | phosphorylation enrichment (EPHB2) | phosphorylation enrichment (AncSZ) | phosphorylation enrichment (Fer (mouse)) | phosphorylation enrichment (c-Abl (mouse)) | SH2 binding enrichment (c-Src SH2) | SH2 binding enrichment (SHP2-C SH2) | SH2 binding enrichment (Grb2 SH2) |
| --- | --- | --- | --- | --- | --- | --- | --- | --- | --- | --- | --- | --- | --- | --- | --- | --- |
| ALWFIYLHTRS [ENG_Y614_S615L_YF] | 0.409 | 1.37 | 0.778 | 0.422 | 0.585 | 0.411 | 0.428 | 1.13 | 0.433 | 0.583 | 1.2 | 0.485 | 0.979 | 0.564 | 0.882 | 0.875 |
| RKGIRYLTSGL [PIGA_Y82] | 0.47 | 0.668 | 0.688 | 0.57 | 0.533 | 0.648 | 0.645 | 0.657 | 0.434 | 0.437 | 0.698 | 0.368 | 0.438 | 0.399 | 0.709 | 1.05 |
| CVGGFYGGCNE [CTSC_Y352_Y347C] | 0.439 | 0.854 | 0.653 | 0.585 | 0.548 | 1.88 | 0.838 | 0.636 | 0.678 | 0.625 | 0.81 | 0.566 | 0.471 | 0.908 | 0.748 | 1.01 |
| APQYTYAQGGQ [FLNA_Y1763] | 0.453 | 0.643 | 0.53 | 0.486 | 0.373 | 0.455 | 0.509 | 0.54 | 0.486 | 0.43 | 0.72 | 0.409 | 0.54 | 2.62 | 1.26 | 0.778 |
| KKHFSYAWPFF [BRDT_Y291_YF] | 0.545 | 1.13 | 0.653 | 1.64 | 0.467 | 0.529 | 0.428 | 0.976 | 0.428 | 0.494 | 1.03 | 0.487 | 0.661 | 1.77 | 2.15 | 1.8 |
| MHLRQYELLGG [GNAS_Y391] | 0.558 | 0.869 | 0.705 | 0.773 | 0.75 | 0.516 | 0.506 | 0.634 | 0.464 | 0.453 | 0.663 | 0.507 | 0.541 | 7.91 | 0.689 | 0.868 |
| AAARPYHIQKW [ACSBG1_Y677] | 0.462 | 0.675 | 0.584 | 0.377 | 0.468 | 0.62 | 0.543 | 0.682 | 0.371 | 0.465 | 0.601 | 0.279 | 0.673 | 1.19 | 1.27 | 1.41 |
| FEREQYADRTR [RBM4_Y355_A359T_YF] | 0.46 | 0.622 | 0.429 | 0.426 | 0.398 | 0.419 | 0.459 | 0.582 | 0.412 | 0.478 | 0.625 | 0.436 | 0.588 | 0.539 | 0.694 | 0.859 |
| NTQRPHFKGGG [TYROBP_Y111_Y111H_YF] | 0.318 | 0.735 | 0.443 | 0.353 | 0.378 | 0.448 | 0.407 | 0.553 | 0.286 | 0.632 | 0.447 | 0.293 | 1.01 | 0.925 | 0.956 | 1.22 |
| LTFHMYADPNI [SOS1_Y618_F623I_YF] | 1.35 | 2.48 | 2.09 | 0.583 | 1.77 | 0.564 | 0.799 | 2.23 | 0.747 | 2.05 | 2.46 | 1.25 | 1.57 | 5.33 | 0.959 | 0.811 |
| ILKPDYQPLAV [HYDIN_Y1072_I1077V] | 0.475 | 0.828 | 0.667 | 0.448 | 0.409 | 0.418 | 0.456 | 0.617 | 0.48 | 0.42 | 0.817 | 0.387 | 0.73 | 0.509 | 0.8 | 0.731 |
| VLAAQYTTVGR [SGSH_Y240_D235V] | 0.352 | 0.598 | 0.48 | 0.421 | 0.503 | 0.445 | 0.543 | 0.426 | 0.367 | 0.307 | 0.551 | 0.394 | 0.514 | 5.28 | 2.77 | 0.953 |
| KHCEDYVCSYN [DSC1_Y846] | 0.627 | 1.23 | 0.662 | 0.398 | 0.63 | 1.36 | 0.555 | 0.93 | 0.502 | 0.578 | 1.14 | 0.506 | 0.771 | 1.05 | 0.874 | 0.913 |
| KPMDTYFDSTR [DYNC2H1_Y2230_YF] | 0.778 | 0.804 | 0.651 | 0.489 | 0.666 | 0.512 | 0.484 | 0.758 | 0.452 | 0.517 | 0.79 | 0.526 | 0.615 | 0.472 | 0.696 | 0.86 |
| FEEDSYVERSQ [RET_Y905_K907E_YF] | 0.508 | 1.26 | 0.731 | 0.415 | 0.67 | 0.526 | 0.457 | 1.08 | 0.504 | 0.621 | 1.18 | 0.575 | 0.866 | 0.512 | 0.618 | 0.992 |
| IDSTPYGQWFE [RPS8_Y109_R110G_YF] | 0.713 | 1.18 | 0.89 | 0.473 | 0.621 | 3.56 | 1.52 | 0.998 | 3.54 | 0.722 | 1.27 | 0.712 | 0.657 | 0.561 | 0.697 | 0.821 |
